Reference: patent US20030235900A1

Target: Strep-Tactin Macroprep resin (Cat. No. 2-1505-010; IBA GmbH)
Experiment: batch binding to Strep-Tactin Macroprep resin, 1 hour in cold room; binding followed by MTSP10 activity left in the supernatant

B1: MTSP10-ST2 C122S (protease domain of human MTSP10, C122S mutant, with C-terminal Strep-tag II, expressed in Pichia pastoris) (enzyme)
chain: RIIGGTDTLEGGWPWQVSLHFVGSAYCGASVISREWLLSAAHCFHGNRLSDPTPWTAHLGMYVQGNAKFVSPVRRIVVHEYYNSQTFDYDIALLQLSIAWPETLKQLIQPISIPPTGQRVRSGEKCWVTGWGRRHEADNKGSLVLQQAEVELIDQTLCVSTYGIITSRMLCAGIMSGKRDACKGDSGGPLSCRRKSDGKWILTGIVSWGHGCGRPNFPGVYTRVSNFVPWIGGWSHPQFEK
percent of activity retained by the resin: 50 to 70%
